Data reported in PMC7864924, “Structures of active-state orexin receptor 2 rationalize peptide and small-molecule agonist recognition and receptor activation” (Nature Communications, 2021).
Changes are numbered by the printed parent chain.

B1: 20 (VHH)
VHH: QVQLVESGGGLVQAGGSLRLSCAASGFPVKTNKMAWYRQAPGKEREWVAAITSYGSWTVYADSVKGRFTISRDNAKNTVYLQMNSLKPEDTAVYYCAVWVGALYIGQGTQVTVS
B2: 8 (VHH)
VHH: QVQLVESGGGLVQAGGSLRLSCAASGFPVKHREMYWYRQAPGKEREWVAAIVSKGNVTEYADSVKGRFTISRDNAKNTVYLQMNSLKPEDTAVYYCNVKDYGWWNAHYDYWGQGTQVTVS
B3: 11 (VHH)
VHH: B2 VHH with K30A, Y35F, V52T, N56S, V57Q, E59A, N105T, H107V
B4: 14 (VHH)
VHH: B2 VHH with E33H, V52A, K54N, N56H, V57R, W103F, W104Y, N105L, A106W
B5: 19 (VHH)
VHH: QVQLVESGGGLVQAGGSLRLSCAASGFPVMENTMYWYRQAPGKEREWVAAIDSYGYYTYYADSVKGRFTISRDNAKNTVYLQMNSLKPEDTAVYYCNVKDVGDHWWFYDYWGQGTQVTVS
B6: 22 (VHH)
VHH: QVQLVESGGGLVQAGGSLRLSCAASGFPVYKHTMYWYRQAPGKEREWVAAINSTGAETAYADSVKGRFTISRDNAKNTVYLQMNSLKPEDTAVYYCEVYVGWFYHGQGTQVTVS
B7: 26 (VHH)
VHH: B6 VHH with Y30A, K31H, H32F, T33V, N52S, A56Y, E57N, W102Y
B8: 24 (VHH)
VHH: B6 VHH with Y30D, K31A, H32Y, T33V, N52A, T54Q, A56H, E57P, S63P, W102Y
B9: 25 (VHH)
VHH: B6 VHH with Y30N, K31N, T33V, N52S, T54Q, W102Y
B10: 4 (VHH)
VHH: QVQLVESGGGSVQAGGSLRLSCAASGAINHIWYLGWFRQAPGKEREGVAALYTWTGWTYYADSVKGRFTVSLDNAKNTVYLQMNSLKPEDTALYYCAAAYFGFASPLRARRYEYWGQGTQVTVS
B11: 27 (VHH)
VHH: QVQLVESGGGLVQAGGSLRLSCAASGFPVTTRSMYWYRQAPGKEREWVAAIASNGRLTAYADSVKGRFTISRDNAKNTVYLQMNSLEPEDTAVYYCEVFVGYYYHGQGTQVTVS
B12: 2 (VHH)
VHH: QVQLVESGGGLVQAGGSLRLSCAASGFPVYRAFMAWYRQAPGKEREWVAAIHSTGWWTHYADSVKGRFTISRDNAKNTVYLQMNSLKPEDTAVYYCHVWVGYTYIGQGTQVTVS
B13: 5 (VHH)
VHH: QVQLVESGGGSVQAGGSLRLSCAASGYISGIEYLGWFRQAPGKEREGVAALYTFEGTTYYADSVKGRFTVSLDNAKNTVYLQMNSLKPEDTALYYCAAAKYGEWGPLWFHEYWYWGQGTQVTVS
B14: 3 (VHH)
VHH: QVQLVESGGGLVQAGGSLRLSCAASGFPVNWKSMAWYRQAPGKEREWVAAISSFGWYTEYADSVKGRFTISRDNAKNTVYLQMNSLKPEDTAVYYCWVKVGATYYGQGTQVTVS
B15: 29 (VHH)
VHH: B14 VHH with N30K, S33T, F54W, W56L, T91S, W97Y, K99G, T103G, Y105R
B16: 28 (VHH)
VHH: B14 VHH with N30V, S33T, A35W, F54Y, K65N, W97A, K99L, A102Y, Y105E
B17: 23 (VHH)
VHH: B14 VHH with N30V, S33Q, F54W, K87N, W97F, A102D, T103G, Y105T
B18: 21 (VHH)
VHH: B14 VHH with N30K, S33T, F54W, W56L, W97L, K99Q, A102V, Y105H, Q107H
B19: 1 (VHH)
VHH: QVQLVESGGGSVQAGGSLRLSCAASGWIQTITYLGWFRQAPGKEREGVAALVTNEGNTYYADSVKGRFTVSLDNAKNTVYLQMNSLKPEDTALYYCAAASWGFVTPLWYYYTYWGQGTQVTVS
B20: 10 (VHH)
VHH: QVQLVESGGGLVQAGGSLRLSCAASGFPVETRHMYWYRQAPGKEREWVAAIQSEGYLTHYADSVKGRFTISRDNAKNTVYLQMNSLKPEDTAVYYCNVKDIGWLWVHYDYWGQGTQVTVS
B21: 18 (VHH)
VHH: QVQLVESGGGLVQAGGSLRLSCAASGFPVNTAHMYWYRQAPGKEREWVAAIASSGDMTLYADSVKGRFTISRDNAKNTVYLQMNSLKPEDTAVYYCNVKDWGWWYVAYDYWGQGTQVTVS
B22: 9 (VHH)
VHH: QVQLVESGGGLVQAGGSLRLSCAASGFPVKQHHMYWYRQAPGKEREWVAAIESGGKETRYADSVKGRFTISRDNAKNTVYLQMNSLKPEDTAVYYCNVKDWGWWWTNYDYWGQGTQVTVS
B23: 16 (VHH)
VHH: B21 VHH with N30A, T31R, A32W, A52N, S54T, W104Y, Y105W, A107N
B24: 12 (VHH)
VHH: B22 VHH with K30Y, Q31T, H32A, H33Y, G54Q, K56Q, E57H, R59I, T106L
B25: 17 (VHH)
VHH: B22 VHH with K30V, Q31G, H32W, E52N, G54S, E57K, R59L, W101A, W104F, T106Y
B26: 6 (VHH)
VHH: QVQLVESGGGSVQAGGSLRLSCAASGNISAIGYLGWFRQAPGKEREGVAALVTWFGKTYYADSVKGRFTVSLDNAKNTVYLQMNSLKPEDTALYYCAAATYGNKNPLTDSYYSYWGQGTQVTVS

Biological target: engineered OX2R carrying an additional amino-terminal Avi-tag, biotinylated (Homo sapiens, UniProt O43614, residues V261–A291 deleted, biotin on the Avi-tag (BirA biotin-protein ligase))
Sequence (O43614 other isoform, or with tags, fused parts or gaps residues V261–A291 deleted | residues V261–A291 deleted): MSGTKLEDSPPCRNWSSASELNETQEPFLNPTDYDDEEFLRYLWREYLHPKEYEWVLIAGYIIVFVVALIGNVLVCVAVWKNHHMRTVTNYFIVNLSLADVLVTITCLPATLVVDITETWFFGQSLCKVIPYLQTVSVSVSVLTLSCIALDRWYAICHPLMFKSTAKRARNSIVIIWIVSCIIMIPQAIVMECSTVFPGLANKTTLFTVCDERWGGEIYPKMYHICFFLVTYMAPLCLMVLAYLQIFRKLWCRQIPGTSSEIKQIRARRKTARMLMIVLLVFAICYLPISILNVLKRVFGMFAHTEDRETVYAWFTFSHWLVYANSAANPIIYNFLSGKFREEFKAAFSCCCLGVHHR

Binder | binding result
B1 | binds
B2 | binds
B3 | binds
B4 | binds
B5 | binds
B6 | binds
B7 | binds
B8 | binds
B9 | binds
B10 | binds
B11 | binds
B12 | binds
B13 | binds
B14 | binds
B15 | binds
B16 | binds
B17 | binds
B18 | binds
B19 | binds
B20 | binds
B21 | binds
B22 | binds
B23 | binds
B24 | binds
B25 | binds
B26 | binds
